Two substances from patent US5981488 can be followed below.

The target in the assay is rat GLP-1 receptor (rat) (UniProt P32301).

In turn, Met-8 GLP-1(7-36)NH2 (peptide) displayed a Percent receptor affinities (cAMP production by the membrane preparation, fluorescent tracer-immuno assay) of 16.6%.
Take Thr-8 GLP-1(7-37)OH (peptide): the Percent receptor affinities (cAMP production by the membrane preparation, fluorescent tracer-immuno assay) was determined as 2.8%.
